Measurements taken from patent US20200123264A1 (Regeneron, published 2020).

B1: H4H18466P2 (antibody, human IgG4, V domains shown)
VH: EVQLVESGGGLVQPGGSLRLSCTASGFTFSSYGLHWVRQAPGKGLEYVSSINHNGGSKYYADSVKGRFTISRDNSKNTLFLQMGSLKTEDMAVYYCARDLFLEWLFHGFDIWGQGTMVTVSS
VL: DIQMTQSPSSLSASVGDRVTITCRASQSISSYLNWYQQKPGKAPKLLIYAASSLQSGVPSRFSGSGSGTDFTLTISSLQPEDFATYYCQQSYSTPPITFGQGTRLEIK
notes: H4H prefix: human IgG4 Fc
B2: H4H17322P2 (antibody, human IgG4, V domains shown)
VH: QLQLQESGPGLVKPSETLSLTCTVSGASISSSRFYGGWIRQPPGKGLEWIGDIYYSGNTYYNPSLQSRVTISVDTSKNQFSLKLSSVTAADTAVYYCARHLMITFGGLIVEGFDIWGQGTMVTVSS
VL: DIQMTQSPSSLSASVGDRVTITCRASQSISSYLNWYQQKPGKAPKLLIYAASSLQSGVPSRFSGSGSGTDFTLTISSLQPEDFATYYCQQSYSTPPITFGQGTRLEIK
notes: H4H prefix: human IgG4 Fc
B3: H4H18462P2 (antibody, human IgG4, V domains shown)
VH: EVQLVESGGDLVQPGRSLRLSCAASGFTFSSFAMSWVRQAPGRGLEWVSSLSDSGDNTYYADSVKGRFTISRDNSKNTLYLQMNNLRAEDTAVYYCAKDLFSGWLFHGFDVWGQGTMVTVSS
VL: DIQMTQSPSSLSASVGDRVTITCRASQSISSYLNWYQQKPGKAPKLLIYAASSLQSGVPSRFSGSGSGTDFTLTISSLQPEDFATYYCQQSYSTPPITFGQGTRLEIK
notes: H4H prefix: human IgG4 Fc
B4: H4H18437P2 (antibody, human IgG4, V domains shown)
VH: QVQLVESGGGVVQPGRSLRLSCAASGFTFSSYGIHWVRQAPGKGLEWVAVISYDGNNKYYADSVKGRFTISRDNSKNTLYLQMNSLRAEDTAVYYCAKDLFLEWLFHGMGVWGQGTTVTVSS
VL: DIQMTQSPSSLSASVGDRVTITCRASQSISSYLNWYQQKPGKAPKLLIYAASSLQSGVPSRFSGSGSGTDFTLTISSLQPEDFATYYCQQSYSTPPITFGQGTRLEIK
notes: H4H prefix: human IgG4 Fc
B5: H4H18464P2 (antibody, human IgG4, V domains shown)
VH: QVQLVQSGPEVKKPGASVKVSCKGSGYTFSWYGISWIRQAPGHGLEWMGWISASSGNTRFAQKVQGRLTMTTDTSTSTAYMELRSLRSDDTAVYYCARTGTRPFDYWGQGTLVTVSS
VL: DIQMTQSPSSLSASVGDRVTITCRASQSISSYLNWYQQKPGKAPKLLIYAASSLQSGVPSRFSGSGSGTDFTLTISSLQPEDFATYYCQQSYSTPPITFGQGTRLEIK
notes: H4H prefix: human IgG4 Fc
B6: H4H18439P2 (antibody, human IgG4, V domains shown)
VH: QLQLQESGPGLVKPSETLSLTCIVSGGDITSSSYYWNWIRQPPGKGLEWIGNIYYSGSTNYNPSLKSRVTISIDTSKSQFSLKLRSVTAADTAVYYCARLLRYFDWSKGYLDYWGQGTLVTVSS
VL: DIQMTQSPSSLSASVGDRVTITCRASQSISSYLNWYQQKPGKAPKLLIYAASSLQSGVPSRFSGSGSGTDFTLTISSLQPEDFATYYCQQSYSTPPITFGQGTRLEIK
notes: H4H prefix: human IgG4 Fc
B7: H4H18440P2 (antibody, human IgG4, V domains shown)
VH: QVQLVESGGGMVKPGGSLRLSCAASGFTFSDYYMSWIRQAPGKGLEWISHISITGSTIYYADSVKGRFTISRDNAKNSLYLEMNRLRDEDTAVYYCTRDEPDIVLVRYGMDVWGQGTTVTVSS
VL: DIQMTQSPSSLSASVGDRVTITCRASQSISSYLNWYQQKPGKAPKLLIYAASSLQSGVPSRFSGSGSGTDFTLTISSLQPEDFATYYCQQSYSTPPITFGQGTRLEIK
notes: H4H prefix: human IgG4 Fc
B8: H4H18457P2 (antibody, human IgG4, V domains shown)
VH: EVQLVESGGSVVRPGESLRLSCAASGFTFDDYGMSWVRQAPGKGLEWVSGISWNGGITVYADSVKGRFTVSRDNAKNSLYLQMNSLRAEDTALYHCARARYGGADYWGQGTLVTVSS
VL: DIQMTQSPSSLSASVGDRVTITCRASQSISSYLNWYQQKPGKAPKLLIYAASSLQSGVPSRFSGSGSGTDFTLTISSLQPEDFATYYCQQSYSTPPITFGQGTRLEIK
notes: H4H prefix: human IgG4 Fc

How the values were obtained:
[1] = biological target: T1, recombinant human LEPR extracellular domain expressed with a C-terminal myc-myc-hexahistidine tag (human, UniProt P48357 22-839); test: SPR, mAb captured, 37 C
T1 construct: Monomeric construct; also called hLEPR.MMH; hLEPR-MMH
Method: (§1) Equilibrium dissociation constants (KD values) for antigen binding to purified anti-LEPR monoclonal antibodies of the invention were determined using a real-time surface plasmon resonance biosensor using a Biacore 4000 instrument. All binding studies were performed in running buffer containing 10 mM HEPES, 150 mM NaCl, 3 mM EDTA, and 0.05% v/v Surfactant Tween-20, pH 7.4 (HBS-ET running buffer) at 25° C. and 37° C. The Biacore sensor surface was first derivatized by amine coupling with a monoclonal mouse anti-human Fc antibody (GE, # BR-1008-39) to the capture anti-LEPR monoclonal antibodies. The LEPR reagents tested for binding to the anti-LEPR monoclonal antibodies included recombinant human LEPR extracellular domain expressed with a C-terminal myc-myc-hexahistidine tag (hLEPR.MMH; SEQ ID NO:90), recombinant cynomolgus monkey LEPR extracellular domain expressed with a C-terminal myc-myc-hexahistidine tag (mfLEPR.MMH; SEQ ID NO:93), recombinant mouse LEPR extracellular domain expressed with a C-terminal myc-myc-hexahistidine tag (mLEPR.MMH; SEQ ID NO:94), recombinant rat LEPR extracellular domain expressed with a C-terminal myc-myc-hexahistidine tag (rLEPR.MMH; SEQ ID NO:95), and recombinant human LEPR extracellular domain expressed with a C-terminal mouse IgG2a Fc tag (hLEPR.mFc; SEQ ID NO:91). LEPR constructs that include MMH tags are monomeric LEPR constructs, and LEPR constructs including an mFc tag are dimeric LEPR constructs. […] The dissociation of monoclonal antibody bound LEPR reagent was monitored for 10 minutes in HBS-ET running buffer. Kinetic association (10 and dissociation (10 rate constants were determined by fitting the real-time binding sensorgrams to a 1:1 binding model with mass transport limitation using Scrubber 2.0c curve-fitting software. Binding dissociation equilibrium constants (KD) and dissociative half-lives (t½) were calculated from the kinetic rate constants as: […]

[2] = biological target: T2, recombinant rat LEPR extracellular domain expressed with a C-terminal myc-myc-hexahistidine tag (rat, UniProt Q62959 22-839); test: SPR, mAb captured, 37 C
T2 construct: Monomeric construct; also called rLEPR.MMH; rLEPR-MMH
T2 sequence (Q62959 other isoform, or with tags, fused parts or gaps): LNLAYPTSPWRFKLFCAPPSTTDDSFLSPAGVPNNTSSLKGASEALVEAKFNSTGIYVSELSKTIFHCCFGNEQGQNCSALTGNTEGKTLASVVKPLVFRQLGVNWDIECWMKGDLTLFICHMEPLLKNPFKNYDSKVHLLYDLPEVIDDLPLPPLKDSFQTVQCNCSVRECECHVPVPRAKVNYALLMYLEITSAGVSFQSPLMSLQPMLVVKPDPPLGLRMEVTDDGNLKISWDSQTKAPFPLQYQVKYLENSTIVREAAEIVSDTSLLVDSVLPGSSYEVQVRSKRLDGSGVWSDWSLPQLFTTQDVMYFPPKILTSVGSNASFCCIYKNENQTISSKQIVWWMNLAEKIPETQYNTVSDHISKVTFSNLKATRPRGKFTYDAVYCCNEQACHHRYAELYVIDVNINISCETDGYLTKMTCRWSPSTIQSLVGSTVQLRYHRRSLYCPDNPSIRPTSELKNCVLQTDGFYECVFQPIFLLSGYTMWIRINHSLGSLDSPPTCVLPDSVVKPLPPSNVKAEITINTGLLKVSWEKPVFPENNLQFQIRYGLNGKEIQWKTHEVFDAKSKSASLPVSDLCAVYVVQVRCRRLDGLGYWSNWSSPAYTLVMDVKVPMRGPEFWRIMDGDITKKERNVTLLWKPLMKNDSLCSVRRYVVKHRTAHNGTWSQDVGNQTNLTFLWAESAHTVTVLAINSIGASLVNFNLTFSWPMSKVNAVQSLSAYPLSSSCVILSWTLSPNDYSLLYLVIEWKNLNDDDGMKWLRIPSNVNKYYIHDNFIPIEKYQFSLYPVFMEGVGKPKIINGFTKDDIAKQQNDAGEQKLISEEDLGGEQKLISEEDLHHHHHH
Method: as §1

[3] = biological target: T3, extracellular domain of human LEPR with an N-terminal myc-myc tag, GPI-anchored on HEK293 cells (human, UniProt P48357 22-839, GPI anchor at the C-terminus ; A GPI anchor is attached at the C end through a carboxypeptidase M derived peptide. The protein is displayed on HEK293 cells.); test: FACS, 10 nM Ab, HEK293/hLEPR-GPI cells, 1 µM Leptin
T3 construct: also called HEK293/hLEPR-GPI; Mycx2-hLEPR(Ecto)-GPI
T3 sequence: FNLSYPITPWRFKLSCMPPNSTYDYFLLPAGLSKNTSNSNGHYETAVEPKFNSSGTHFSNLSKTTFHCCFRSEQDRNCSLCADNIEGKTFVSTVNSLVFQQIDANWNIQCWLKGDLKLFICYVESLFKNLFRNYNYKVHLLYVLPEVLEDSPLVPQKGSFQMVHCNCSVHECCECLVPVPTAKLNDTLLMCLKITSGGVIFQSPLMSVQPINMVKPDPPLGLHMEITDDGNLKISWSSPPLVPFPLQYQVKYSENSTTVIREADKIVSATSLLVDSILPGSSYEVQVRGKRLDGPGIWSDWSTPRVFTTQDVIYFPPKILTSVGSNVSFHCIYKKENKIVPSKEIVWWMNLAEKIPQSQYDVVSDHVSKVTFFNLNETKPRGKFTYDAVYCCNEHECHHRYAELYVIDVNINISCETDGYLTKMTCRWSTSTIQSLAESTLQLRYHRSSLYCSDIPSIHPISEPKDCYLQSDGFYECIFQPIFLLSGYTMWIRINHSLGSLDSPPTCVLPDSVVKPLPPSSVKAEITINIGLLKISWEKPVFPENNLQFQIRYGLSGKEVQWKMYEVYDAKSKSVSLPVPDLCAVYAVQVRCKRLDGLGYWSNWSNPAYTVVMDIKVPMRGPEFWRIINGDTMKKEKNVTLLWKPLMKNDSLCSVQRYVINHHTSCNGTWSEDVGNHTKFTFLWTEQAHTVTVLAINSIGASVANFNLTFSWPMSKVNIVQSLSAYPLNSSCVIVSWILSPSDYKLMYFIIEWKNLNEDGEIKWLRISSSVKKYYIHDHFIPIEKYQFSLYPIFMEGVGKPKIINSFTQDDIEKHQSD
Method: For the FACS analysis, HEK293 parental cells and HEK293/hLEPR-GPI cells were dissociated and plated onto 96-well v-bottom plates at 5×10⁵ cells/well in PBS containing 2% FBS (FACS buffer). […] Cells were subsequently fixed using BD CytoFix™ (Becton Dickinson, #554655), filtered, and analyzed on a HyperCyt Flow Cytometer (Beckman Coulter). Unstained and secondary antibody alone controls were also tested for all cell lines. The results were analyzed using ForeCyt (IntelliCyt) and FlowJo version 10 softwares to determine the geometric means of fluorescence for viable cells. The geometric mean of fluorescence for each sample was then normalized to the geometric mean of unstained cells to obtain relative binding per condition referred to as “binding ratios”, and these binding ratios were recorded in Table 14 for each antibody tested.

[4] = biological target: T1, recombinant human LEPR extracellular …; test: Luminex, myc-captured LEPR protein on beads, Ab 5 µg/mL
Method: Aliquots of microspheres with immobilized anti-myc monoclonal antibodies, prepared as described above, were added individually to 1 mL of the each of these protein supernatants. The microspheres were gently mixed, incubated for two hours at 25° C., washed twice with 1 mL of DBPS, centrifuged to remove the supernatant and finally resuspended in 1 mL of DPBS buffer. Forty eight μL of anti-myc IgG coupled microspheres from individual reactions with full length human LEPR and with each of the human LEPR domain proteins were withdrawn and mixed together in 3.6 mL of PBS+20 mg/mL BSA+0.05% sodium azide (blocking buffer).
From this mixed pool, 75 μL of microspheres were plated per well on a 96 well filter plate (Millipore, Cat. No: MSBVN1250) and mixed with 25 μL of individual anti-human LEPR monoclonal antibodies (0.5 or 5 μg/mL), incubated for two hours at 25° C. and then washed twice with 200 μL of DPBS with 0.05% Tween 20 (washing buffer). […] After 30 minutes, the samples were washed twice with 200 μL of washing buffer and resuspended in 150 μL of wash buffer. The Median Fluorescence intensity (MFI) of the microspheres was measured in a Luminex Analyzer.

Row | Binder | 100 nM hLEPR-MMH Bound (RU) [1] [RU] | Kd [1] [nM] | koff [1] [s⁻¹] | kon [1] [M⁻¹ s⁻¹] | t½ [1] [min] | 100 nM rLEPR-MMH Bound (RU) [2] [RU] | Kd [2] [nM] | koff [2] [s⁻¹] | kon [2] [M⁻¹ s⁻¹] | t½ [2] [min] | Binding Ratio (normalized to unstained) [3] [fold] | Luminex MFI [4] [MFI]
1 | B1 | 26 | 148 | 0.00674 | 45500 | 1.7 | 6 | 771 | 0.0252 | 32600 | 0.5 | 398 | 5070
2 | B2 | 99 | 11.7 | 0.000812 | 69500 | 14 | 9 | 352 | 0.0328 | 93200 | 0.4 |  | 8930
3 | B3 | 31 | 248 | 0.0114 | 45800 | 1 |  |  |  |  |  | 759 | 5850
4 | B4 | 55 | 77.6 | 0.00884 | 114000 | 1.3 | 10 | 629 | 0.0193 | 30700 | 0.6 |  | 8640
5 | B5 | 68 | 20.5 | 0.00315 | 154000 | 3.7 | 1 |  |  |  |  | 3590 | 9380
6 | B6 | 19 | 202 | 0.00469 | 23200 | 2.5 | 0 |  |  |  |  | 2480 | 5470
7 | B7 | 95 | 27.3 | 0.00173 | 63400 | 7 | 0 |  |  |  |  | 2560 | 7040
8 | B8 | 108 | 24.8 | 0.00855 | 345000 | 1.4 | 16 | 580 | 0.0175 | 30200 | 0.7 | 3110 | 7500
